The record followed here is patent US20230212268A1 (UNM RAINFOREST INNOVATIONS, published 2023).

Assay [1] concerns the target recombinant BDBV glycoprotein (BDBV (Bundibugyo ebolavirus)). As to the kind of experiment: ELISA dose response, GP coated. For orientation: In an ELISA, binding on a coated surface is turned into a signal by an enzyme label.
Assay [2] deals with T1, recombinant MARV glycoprotein (MARV (marburgvirus, Ravn), UniProt Q1PDC7 19-648).
T1 sequence: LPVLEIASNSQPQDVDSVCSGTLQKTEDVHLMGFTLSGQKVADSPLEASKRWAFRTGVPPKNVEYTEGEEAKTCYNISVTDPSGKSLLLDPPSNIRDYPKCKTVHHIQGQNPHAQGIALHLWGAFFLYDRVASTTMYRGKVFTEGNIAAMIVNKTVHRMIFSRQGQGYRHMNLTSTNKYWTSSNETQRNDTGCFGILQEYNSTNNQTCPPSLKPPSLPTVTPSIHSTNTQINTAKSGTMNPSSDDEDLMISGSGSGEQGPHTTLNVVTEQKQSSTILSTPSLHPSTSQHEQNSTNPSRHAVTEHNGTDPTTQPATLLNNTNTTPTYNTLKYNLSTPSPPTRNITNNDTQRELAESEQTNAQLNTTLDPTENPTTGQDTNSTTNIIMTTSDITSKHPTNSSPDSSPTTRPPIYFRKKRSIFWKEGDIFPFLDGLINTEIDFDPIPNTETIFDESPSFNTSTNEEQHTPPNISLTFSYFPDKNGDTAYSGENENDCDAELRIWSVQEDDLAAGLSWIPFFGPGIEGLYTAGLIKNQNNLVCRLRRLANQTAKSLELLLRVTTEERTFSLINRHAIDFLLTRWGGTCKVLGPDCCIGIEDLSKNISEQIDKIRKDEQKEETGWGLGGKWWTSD
Kind of assay: maximal binding from ELISA dose-response fit.

A value given as a limit tells only on which side of the number the result lay.

B1: EbovGPscFv4-2 (scFv)
scFv: MAWSHPQFEKTGSGGAELVKSGASVKLSCTASGFNIKDDYMHWVKQRPEQGLEWIGWIDPENGDTEYASKFQGKATITADTSSNTAYLQLSSLTSEDTAVYYCTTYYYGSAWFAYWGQGTLVTVSAGGGGSGGGGSGGGGSGGGGSASLSVSVGETVTITCRASGNIHNYLAWYQQKQGKSPQLLVYNAKTLADGVPSRFSGSGSGTQYSLKINNLQPEDFGSYYCQHFWSTPYTFGGGTKLEIKRADAAPTVSIFPPSSEQLTSGGASVVCFLNNFTHCQELQQDECS
B1: the EC50 (usually the midpoint of the concentration-response curve) in assay [1] is less than 9 µg/mL. For the same molecule, the Bmax signal in assay [2] was determined as 380000 relative absorbance units.
